Measurements taken from the supplement of paper PMC10567573.

B1: TRIM43 (parent)
chain: FCDMDKSLLCLLCSNSQEHGAHKH
B2: KLHL20 (parent)
chain: YQDMIYAVGGRDDTTELSSAERYN

Variants of: B1
Assay: protein stability index of a GFP-peptide fusion (GPS, HEK-293T) (PSI 1-6); higher = more stable
Conditions: c terminus: a fixed tail appended
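Further: lentivirally expressed fusions sorted by FACS into six bins by GFP to DsRed ratio, PSI derived from sequencing read proportions per bin multiplied by bin number.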

Variant	protein stability index
FCDMDKSLLCLLCSNSQEHGHHKH [A21H]	1.98
FCDMDKSLLCLLCSNSQEHGIHKH [A21I]	1.47
FCDMDKSLLCLLCSNSQEHGKHKH [A21K]	1.98
FCDMDKSLLCLLCSNSQEHGLHKH [A21L]	1.97
FCDMDKSLLCLLCSNSQEHGMHKH [A21M]	2.33
FCDMDKSLLCLLCSNSQEHGNHKH [A21N]	1.84
FCDMDKSLLCLLCSNSQEHGPHKH [A21P]	2.22
FCDMDKSLLCLLCSNSQEHGQHKH [A21Q]	2.23
FCDMDKSLLCLLCSNSQEHGRHKH [A21R]	2.16
FCDMDKSLLCLLCSNSQEHGSHKH [A21S]	2.02
FCDMDKSLLCLLCSNSQEHGTHKH [A21T]	2.07
FCDMDKSLLCLLCSNSQEHGVHKH [A21V]	1.85
FCDMDKSLLCLLCSNSQEHGWHKH [A21W]	1.54
FCDMDKSLLCLLCSNSQEHGYHKH [A21Y]	1.48
FCDMDKSLLCLLCSNSQEHGAAKH [H22A]	1.77
FCDMDKSLLCLLCSNSQEHGACKH [H22C]	2.59
FCDMDKSLLCLLCSNSQEHGADKH [H22D]	2.11
FCDMDKSLLCLLCSNSQEHGAEKH [H22E]	1.53
FCDMDKSLLCLLCSNSQEHGAFKH [H22F]	2.17
FCDMDKSLLCLLCSNSQEHGAGKH [H22G]	1.78
FCDMDKSLLCLLCSNSQEHGAIKH [H22I]	2.17
FCDMDKSLLCLLCSNSQEHGAKKH [H22K]	1.73
FCDMDKSLLCLLCSNSQEHGALKH [H22L]	1.61
FCDMDKSLLCLLCSNSQEHGAMKH [H22M]	1.48

Variant	protein stability index
FCDMDKSLLCLLCSNSQEHGANKH [H22N]	1.75
FCDMDKSLLCLLCSNSQEHGAPKH [H22P]	1.69
FCDMDKSLLCLLCSNSQEHGAQKH [H22Q]	1.91
FCDMDKSLLCLLCSNSQEHGARKH [H22R]	1.84
FCDMDKSLLCLLCSNSQEHGASKH [H22S]	1.73
FCDMDKSLLCLLCSNSQEHGATKH [H22T]	1.79
FCDMDKSLLCLLCSNSQEHGAVKH [H22V]	1.7
FCDMDKSLLCLLCSNSQEHGAWKH [H22W]	1.45
FCDMDKSLLCLLCSNSQEHGAYKH [H22Y]	1.87
FCDMDKSLLCLLCSNSQEHGAHAH [K23A]	2.06
FCDMDKSLLCLLCSNSQEHGAHCH [K23C]	1.82
FCDMDKSLLCLLCSNSQEHGAHDH [K23D]	2.4
FCDMDKSLLCLLCSNSQEHGAHEH [K23E]	2.05
FCDMDKSLLCLLCSNSQEHGAHFH [K23F]	1.82
FCDMDKSLLCLLCSNSQEHGAHGH [K23G]	1.53
FCDMDKSLLCLLCSNSQEHGAHHH [K23H]	2.13
FCDMDKSLLCLLCSNSQEHGAHIH [K23I]	2.17
FCDMDKSLLCLLCSNSQEHGAHLH [K23L]	1.63
FCDMDKSLLCLLCSNSQEHGAHMH [K23M]	1.91
FCDMDKSLLCLLCSNSQEHGAHNH [K23N]	1.89
FCDMDKSLLCLLCSNSQEHGAHPH [K23P]	2.06
FCDMDKSLLCLLCSNSQEHGAHQH [K23Q]	1.64
FCDMDKSLLCLLCSNSQEHGAHRH [K23R]	2.18
FCDMDKSLLCLLCSNSQEHGAHSH [K23S]	2.25

Variant	protein stability index
FCDMDKSLLCLLCSNSQEHGAHTH [K23T]	2.02
FCDMDKSLLCLLCSNSQEHGAHVH [K23V]	2.06
FCDMDKSLLCLLCSNSQEHGAHWH [K23W]	1.94
FCDMDKSLLCLLCSNSQEHGAHYH [K23Y]	1.43
FCDMDKSLLCLLCSNSQEHGAHKA [H24A]	1.72
FCDMDKSLLCLLCSNSQEHGAHKC [H24C]	2.4
FCDMDKSLLCLLCSNSQEHGAHKD [H24D]	2.18
FCDMDKSLLCLLCSNSQEHGAHKE [H24E]	1.65
FCDMDKSLLCLLCSNSQEHGAHKF [H24F]	1.43
FCDMDKSLLCLLCSNSQEHGAHKG [H24G]	1.77
FCDMDKSLLCLLCSNSQEHGAHKI [H24I]	1.7
FCDMDKSLLCLLCSNSQEHGAHKK [H24K]	1.89
FCDMDKSLLCLLCSNSQEHGAHKL [H24L]	1.53
FCDMDKSLLCLLCSNSQEHGAHKM [H24M]	1.48
FCDMDKSLLCLLCSNSQEHGAHKN [H24N]	2.26
FCDMDKSLLCLLCSNSQEHGAHKP [H24P]	1.69
FCDMDKSLLCLLCSNSQEHGAHKQ [H24Q]	2.22
FCDMDKSLLCLLCSNSQEHGAHKR [H24R]	1.86
FCDMDKSLLCLLCSNSQEHGAHKS [H24S]	1.58
FCDMDKSLLCLLCSNSQEHGAHKT [H24T]	1.66
FCDMDKSLLCLLCSNSQEHGAHKV [H24V]	2.04
FCDMDKSLLCLLCSNSQEHGAHKW [H24W]	1.84
FCDMDKSLLCLLCSNSQEHGAHKY [H24Y]	1.36

Variants of: B2
Assay: as above
Conditions: c terminus: a fixed tail appended

Variant	protein stability index
YQDMIYNVGGRDDTTELSSAERYN [A7N]	2.92
YQDMIYAVGGRDDTTELSNAERYN [S19N]	2.11
YQDMIYAVGGRVDTTELSSAERYN [D12V]	1.53
YQEMIYAVGGRDDTTELSSAERYN [D3E]	2.48
FQDMIYAVGGRDDTTELSSAERYN [Y1F]	1.89
YQDMIYAVGGRDDTTELSSAWRYN [E21W]	1.58
YQDMNYAVGGRDDTTELSSAERYN [I5N]	3.09
YQAMIYAVGGRDDTTELSSAERYN [D3A]	1.7
YQDMIYAYGGRDDTTELSSAERYN [V8Y]	2.09
YQDMIYAVGGRDDTAELSSAERYN [T15A]	2.4
YQDMIYAVGGRDDTRELSSAERYN [T15R]	2.08
YNDMIYAVGGRDDTTELSSAERYN [Q2N]	4.27
YQDMIYAVGIRDDTTELSSAERYN [G10I]	1.62
MQDMIYAVGGRDDTTELSSAERYN [Y1M]	4.1
YQDMIYAVGGRDDTTELSSAEWYN [R22W]	2.56
YQDMIYAVYGRDDTTELSSAERYN [G9Y]	1.32
YQDDIYAVGGRDDTTELSSAERYN [M4D]	3.48
YQDMIYAVGGRDDTTELSSAGRYN [E21G]	1.94
YQDMIYAVGGSDDTTELSSAERYN [R11S]	2.9
YQDMDYAVGGRDDTTELSSAERYN [I5D]	3.99
YQDMIYAVGGRDDITELSSAERYN [T14I]	2.09
YQDMSYAVGGRDDTTELSSAERYN [I5S]	3.53
YQDMIYAVGHRDDTTELSSAERYN [G10H]	2.12
